We go through two substances from paper PMC2689706.

A value given as a limit tells only on which side of the number the result lay.

For the test, the target named is bacterially expressed GST-tagged eRF3 (UniProt P15170). Nature of the test: not stated; unpublished data; bacterially expressed GST-tagged eRF3 with partner translated in rabbit reticulocyte lysate.

Consider “rabbit reticulocyte-lysate-translated PABPC1 (from UniProt P11940 1-636) (natural protein)”, for which the Kd – broadly, a measure of binding affinity in units of concentration – came out at 5 nM.

In turn, “rabbit reticulocyte-lysate-translated hUpf1 (from UniProt Q92900 1-1129) (natural protein)” displayed a Kd of over 1000 nM.
